Experimental data: patent US20230242902A1, “A HIGHLY ERROR-PRONE […] R[…] FOR TARGETED CONTINUOUS EVOLUTION IN VIVO” (The Regents of the University of California, priority 2017, published 2023)
Values joined by “and” are separate entries in the source; they are usually repeats but may differ in a detail not shown here. Equal entries are not always repeated.

Assays:
Format in all cases: cell-based, S. cerevisiae
genomic URA3 gene = assay: Fluctuation tests of the genomic URA3 gene in the presence of TP-DNAP1 variants; conditions: for Yeast genomic substitution mutation rate: URA3 locus, strain harbouring p1 and the TP-DNAP1 variant
Protocol: Fluctuation tests of the genomic URA3 gene were performed to determine genomic per-base substitution rates, as previously described (Ravikumar et al., 2014). Fluctuation data were analyzed by the maximum likelihood method, as described for large-scale p1 fluctuation tests. Phenotypic mutation rates were divided by the target size for loss of function of URA3 via base pair substitution (Lang et al., 2008), to yield per-base substitution rates. 95% confidence intervals were similarly scaled by these factors. All data related to genomic URA3 fluctuation tests are fully described in Table 5.

p1-encoded leu2 (Q180*) = assay: qPCR measurement of p1-encoded leu2 (Q180*) copy number; conditions: qPCR-determined p1 copy number, OR-Y24 strains
Protocol: A calibration curve was established to correlate p1 copy number, determined via quantitative PCR (qPCR), with fluorescence of p1-encoded mKate2 (Table 1). Five TP-DNAP1 variants representing a wide range of copy numbers were transformed into ORY24 and passaged until w.t. p1 was displaced. The five OR-Y24 strains were grown to saturation, diluted 1:10,000 to mimic p1 fluctuation tests, and grown in triplicate 100 μL cultures and duplicate 40 mL cultures. 100 μL saturated cultures were subject to fluorescence measurement of mKate2 (ex/em=561 nm/620 nm, bandwidth=15 nm) on a flow cytometer (Invitrogen Attune NxT). Whole-cell DNA extracts were prepared from 40 mL cultures and used as templates for qPCR measurement of p1-encoded leu2 (Q180*), as described previously (Ravikumar et al., 2014). p1-encoded LEU2 was PCR amplified with qPCR-Leu2F and qPCR Leu2R; and genomic LEU3 was PCR amplified with qPCR-Leu3F and qPCR-Leu3R using SyBR Green (Fisher Scientific) master mix.

p2-delORF2-URA3 = assay: Complementation of native TP-DNAP2 deletion (p2-delORF2-URA3 replication in trans)
From the text: First, TP-DNAP2, which is ORF2 of p2, was deleted by homologous recombination of a synthetic cassette encoding URA3. Since p2 is a multi-copy plasmid, the resulting strain (GA-Y069) harbored a mixture of the parental wt p2 and the recombinant p2 with ORF2 deleted (p2-delORF2-URA3), along with unaltered p1. In this strain, both the wt p2 and recombinant p2-delORF2-URA3 plasmids rely on TP-DNAP2 encoded on the parental wt p2 plasmid for replication. Thus, loss of wt p2 should disable replication of p2-delORF2-URA3. […] Next, the same experiment was repeated in the presence of a codon-optimized TP-DNAP2 expressed in trans from a standard yeast CEN6/ARS4 nuclear plasmid (pGA55-reTP-DNAP2). […] Therefore, p2-derived plasmids can be replicated by TP-DNAP2 encoded on a standard nuclear plasmid, simplifying the characterization of p2 replication by error-prone TP-DNAP2 variants.

B1: TP-DNAP1-4-2: TP-DNAP1 variant (L477V, L640Y, I777K, W814N), encoded by SEQ ID NO:11 (protein, listed as Kluyveromyces lactis)
chain: MDYKDKALNDLRNVYADFDSLPLDFRQILIKDRATLLQKEDVEKKILERQEDAKKYAEYLKQSEIPERISLPNIKRHKGVSISFEETSEDMVLEPRPFIFDGLNIRCFRRETIFSLKNKILNMVKESSSFKNVSRQSVSFMYFKIFNKGKVIASTKSVNIYEDKIDERLEDLCNNFDDVLKKIIDVTYGYESLFVSETYSYVIFYAKSIYFPQPRCVNNWGNNIPNILTFDSFKLFTANKNNVSCIKQCSRFLWQKDFNTLEEMIEYKNGNICIVTPQLHINDVRDIKSFNDIRLYSESPIKTFSVIDNTITYLFYFKEHLGVIFNITKSRHDRRVTKFSPLSKFSDVKNITVCFDIESYFDPEKESNQVNIPFICCASIIYNKVIGNIVDFEGRDCVAQMIEYVVDICGELNISSVELIAHNGGGYDFHYILSSMYNPAAIKNILIRNNSFISFNFAHDGVKFSVKDSYSFLLCSVANASKAFLNEETFKKTDFPHHDLKTADDLYKVYKEWSSVNTEINHVVEKEKLLITSEHIVNFTKNDKSKTLIEWSKDYCRNDVLVLSKVWLEFKNAVEDIFNCELVDQTMTLAGLSYKLFQANMPFDVELRHPNKEDYFNMREALIGGRCISVNGIYKDVLCYDVKSLYPASMAFYDQPYGSFKRVSSRPKDELGIYYVRVTPNRNNKSNFFPIRSHNKITYNNFEESTYIAWYTNVDIDIGLSEGHNIEYIPFDSYGNIGYSWSKKGKIFEKYIKDVLYKLKIKYEKQNNKVKRNVIKKIMNSLWGKFAQKWVNFEYFIKSEDDIDFESEEAYKINDTDFMLIKKIKESTYSSKPIQNGVFTLSWARYHMKSIWDAGAKEGAECIYSDTDSIFVHKEHFKKNAKFMLNGLKVPIIGSEVGQLELECEFDKLLCAGKKQYMGFYTYFQDGKPCIKEKKRFKGIPSNYIIPELYAHLLSGADKEAKIQFLKFRREWGSVKGYIENKTVKAT
genomic mutation rates in the presence of p1 replication (genomic URA3 gene): remain unchanged
Yeast genomic substitution mutation rate (genomic URA3 gene): 1.98 × 10^−10 s.p.b.
Average leu2 (Q180*) copy number per cell (p1-encoded leu2 (Q180*); L640Y, I777K, W614N): 16.9 and 15.6

B2: S370Q: TP-DNAP2 variant (protein, listed as Kluyveromyces lactis)
chain: MNDELAFLNSQIDDYSDDIEFLRTEVFRINRYSKSIYSLMKNSSKEAIKETIEFNKYGQEIHSKIKEKEISLIEAIKLMEKKYKYLRSLNKTKDKSKKKKIHTKDIETLKTIYKTKADFDIRNFKNAETFTYENYSLLIPSEKELIDLIPEIEEDYSYYFYVSLTITGPTIFGGVTRKVPIIDTYGDINKDFYNKIKENITKVLDRVPFYEEKESEIICKKVLITLTVNKWESIDKWYKNVKSKSKKFKDFTLFLASDTSKNCVQQCVEYLGGKWNTNYSLEKMIPQQKIVTYIPLLMDIQYVQSMEDLISDFDEPNTDCKNIARLLKWNGHMGVITKIDKDVKINRIQRKRIIDVENKEVKEVFFDIEQFSDETKHQIPYLICWSYLGELYYRTGKNCIKEFVEEILSYNVDIILYAWYGSGYDYQHVLPYMKSKCIKDKYIIKNNMITYGELYYENAIIYLKDPYLFILTSLDKASKAFNVINKGEFPHSIIHSWEDLNKILPNWVKIQKRMIEYKDDNKLNIYYKNIEIFENDRNYNTILENAIEYCKVDVLAMEKVWIKFKKLLEKNLNITVSVKTFTLSQLSMKIMESKLPKYVKLYVPTLEEYSKIRNAIYGGRVISKNGIYEENIVYADVVSLYPSAMKLLKHSYGKPKLVDYIDFEKHGIYRVTLLNKHDQEPKNYLNFVPRRINRKLTWEWFKIHEGWYHTYDLIIAKSEGFDIYCHEGFEYPEKDYIFNDFIDTLYSMKETHTACSCEEQPCPIRMVAKIALNGGGYGKFVQKPIDKEIYIVKRDVVAGECDKLQENENGEICIGKRLVKRPLFYNLDSENYDKMIIEKEDEPIYSTQCGISILSASRYRLYKLCKQFENIDIIYSDTDSIFVKQKSVDWELFKSKCGSELGQLDSTIDDTKNAIISKMYIGGAKMYAFEYLNNKNKLITKLHCKGVPNYMLSLNQFKYLMESPDNTIAYKFEIIRRKLVNVITKDLIKDIKQT
ability to complement deletion of native TP-DNAP2 and sustain p2-delORF2-URA3 replication (p2-delORF2-URA3): not active enough to fully complement a deletion of the native TP-DNAP2

B3: Y424Q: TP-DNAP2 variant (protein, listed as Kluyveromyces lactis)
chain: MNDELAFLNSQIDDYSDDIEFLRTEVFRINRYSKSIYSLMKNSSKEAIKETIEFNKYGQEIHSKIKEKEISLIEAIKLMEKKYKYLRSLNKTKDKSKKKKIHTKDIETLKTIYKTKADFDIRNFKNAETFTYENYSLLIPSEKELIDLIPEIEEDYSYYFYVSLTITGPTIFGGVTRKVPIIDTYGDINKDFYNKIKENITKVLDRVPFYEEKESEIICKKVLITLTVNKWESIDKWYKNVKSKSKKFKDFTLFLASDTSKNCVQQCVEYLGGKWNTNYSLEKMIPQQKIVTYIPLLMDIQYVQSMEDLISDFDEPNTDCKNIARLLKWNGHMGVITKIDKDVKINRIQRKRIIDVENKEVKEVFFDIESFSDETKHQIPYLICWSYLGELYYRTGKNCIKEFVEEILSYNVDIILYAWYGSGQDYQHVLPYMKSKCIKDKYIIKNNMITYGELYYENAIIYLKDPYLFILTSLDKASKAFNVINKGEFPHSIIHSWEDLNKILPNWVKIQKRMIEYKDDNKLNIYYKNIEIFENDRNYNTILENAIEYCKVDVLAMEKVWIKFKKLLEKNLNITVSVKTFTLSQLSMKIMESKLPKYVKLYVPTLEEYSKIRNAIYGGRVISKNGIYEENIVYADVVSLYPSAMKLLKHSYGKPKLVDYIDFEKHGIYRVTLLNKHDQEPKNYLNFVPRRINRKLTWEWFKIHEGWYHTYDLIIAKSEGFDIYCHEGFEYPEKDYIFNDFIDTLYSMKETHTACSCEEQPCPIRMVAKIALNGGGYGKFVQKPIDKEIYIVKRDVVAGECDKLQENENGEICIGKRLVKRPLFYNLDSENYDKMIIEKEDEPIYSTQCGISILSASRYRLYKLCKQFENIDIIYSDTDSIFVKQKSVDWELFKSKCGSELGQLDSTIDDTKNAIISKMYIGGAKMYAFEYLNNKNKLITKLHCKGVPNYMLSLNQFKYLMESPDNTIAYKFEIIRRKLVNVITKDLIKDIKQT
ability to complement deletion of native TP-DNAP2 and sustain p2-delORF2-URA3 replication (p2-delORF2-URA3): not active enough to fully complement a deletion of the native TP-DNAP2

B4: w.t.: wild-type Kluyveromyces lactis DNA polymerase TP-DNAP1, SEQ ID NO:1 (protein, listed as Kluyveromyces lactis)
chain: MDYKDKALNDLRNVYADFDSLPLDFRQILIKDRATLLQKEDVEKKILERQEDAKKYAEYLKQSEIPERISLPNIKRHKGVSISFEETSEDMVLEPRPFIFDGLNIRCFRRETIFSLKNKILNMVKESSSFKNVSRQSVSFMYFKIFNKGKVIASTKSVNIYEDKIDERLEDLCNNFDDVLKKIIDVTYGYESLFVSETYSYVIFYAKSIYFPQPRCVNNWGNNIPNILTFDSFKLFTANKNNVSCIKQCSRFLWQKDFNTLEEMIEYKNGNICIVTPQLHINDVRDIKSFNDIRLYSESPIKTFSVIDNTITYLFYFKEHLGVIFNITKSRHDRRVTKFSPLSKFSDVKNITVCFDIESYFDPEKESNQVNIPFICCASIIYNKVIGNIVDFEGRDCVAQMIEYVVDICGELNISSVELIAHNGGGYDFHYILSSMYNPAAIKNILIRNNSFISFNFAHDGVKFSVKDSYSFLLCSLANASKAFLNEETFKKTDFPHHDLKTADDLYKVYKEWSSVNTEINHVVEKEKLLITSEHIVNFTKNDKSKTLIEWSKDYCRNDVLVLSKVWLEFKNAVEDIFNCELVDQTMTLAGLSYKLFQANMPFDVELRHPNKEDYFNMREALIGGRCISVNGIYKDVLCLDVKSLYPASMAFYDQPYGSFKRVSSRPKDELGIYYVRVTPNRNNKSNFFPIRSHNKITYNNFEESTYIAWYTNVDIDIGLSEGHNIEYIPFDSYGNIGYSWSKKGKIFEKYIKDVLYKLKIKYEKQNNKVKRNVIKIIMNSLWGKFAQKWVNFEYFIKSEDDIDFESEEAYKIWDTDFMLIKKIKESTYSSKPIQNGVFTLSWARYHMKSIWDAGAKEGAECIYSDTDSIFVHKEHFKKNAKFMLNGLKVPIIGSEVGQLELECEFDKLLCAGKKQYMGFYTYFQDGKPCIKEKKRFKGIPSNYIIPELYAHLLSGADKEAKIQFLKFRREWGSVKGYIENKTVKAT
Yeast genomic substitution mutation rate (genomic URA3 gene): 8.73 × 10^−11 s.p.b.
Average leu2 (Q180*) copy number per cell (p1-encoded leu2 (Q180*)): 68.9 and 88.1
